The target in assay [1] is T1, N-terminally biotinylated recombinant human PADI4 (bio-His-PADI4) (human, UniProt Q9UM07 1-663, biotin on the N-terminal Avi-Tag (BirA)).
T1 construct: human peptidylarginine deiminase IV (PADI4), residues 1-663; (vector p28BIOH-LIC, Addgene plasmid 62352); also called Bio-hPADI4 wt; PADI4_WT; source: E. coli BL21-DE3 co-expressing biotin ligase (BirA), purified (Ni-NTA, S200 SEC); not shown: Avi-Tag (biotinylated), N-terminal, kept; His6, N-terminal, kept
The experiment in a line: SPR; single cycle kinetics; biotinylated PADI4 (wild type or single-residue variant) captured on a Biotin CAPture chip, peptide or peptide analogue as analyte; 50 mM HEPES pH 7.5, 150 mM NaCl, 2 mM DTT, 0.05% Tween-20, 0.1% DMSO; 25 °C; CaCl2 concentration not told for these runs. As to conditions: both partners purified.

Assay [2] deals with His-tagged recombinant human PADI4 (His-PADI4) (human, UniProt Q9UM07 1-663). As to the kind of experiment: cell-based or functional assay.
His-tagged recombinant human PADI4 (His-PADI4), sequence (Q9UM07 whole entry): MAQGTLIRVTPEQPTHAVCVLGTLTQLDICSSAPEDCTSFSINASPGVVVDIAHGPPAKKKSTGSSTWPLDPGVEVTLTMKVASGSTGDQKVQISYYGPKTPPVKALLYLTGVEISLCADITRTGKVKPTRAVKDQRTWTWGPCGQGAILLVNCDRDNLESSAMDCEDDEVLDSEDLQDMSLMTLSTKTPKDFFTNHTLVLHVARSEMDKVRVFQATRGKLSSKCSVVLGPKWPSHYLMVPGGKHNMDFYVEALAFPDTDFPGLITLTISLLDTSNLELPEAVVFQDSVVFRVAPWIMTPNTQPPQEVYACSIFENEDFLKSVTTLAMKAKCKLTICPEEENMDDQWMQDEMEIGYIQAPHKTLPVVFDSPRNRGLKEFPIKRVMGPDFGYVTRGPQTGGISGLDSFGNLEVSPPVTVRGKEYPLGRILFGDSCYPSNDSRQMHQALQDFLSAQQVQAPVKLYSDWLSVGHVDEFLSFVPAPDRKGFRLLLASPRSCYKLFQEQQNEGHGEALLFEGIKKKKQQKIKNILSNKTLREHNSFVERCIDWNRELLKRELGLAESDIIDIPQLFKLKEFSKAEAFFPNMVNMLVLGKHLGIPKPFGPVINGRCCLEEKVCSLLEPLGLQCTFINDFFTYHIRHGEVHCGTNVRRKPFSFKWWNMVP

Here are results for one molecule from paper PMC11555231, “A cyclic peptide toolkit reveals mechanistic principles of peptidylarginine deiminase IV regulation” (Nature Communications, 2024).

T1 sequence (Q9UM07 whole entry, the tested form may be a part): as the sequence (Q9UM07 whole entry) above

B1: PADI4_3_R2Cit (peptide)
chain: YRDHHYRHPKYCG
modifications: citrulline at position 2; else as PADI4_3: D-tyrosine at position 1; thioether cyclisation between the N-terminus and the cysteine side chain; C-terminal amide
For B1, in assay [1], the dissociation constant (Kd) stood at 20 nM. Further, the “IC50 of inhibition of PADI4 activity (COLDER assay)” value in assay [2] is 1100 nM.
